The experiment addresses T1, HLA-B*44:05 (human).
T1 construct: also called peptide-receptive MHC class I molecule
Description: UV peptide exchange, anti-b2m ELISA. On the procedure:
Only peptide candidates that can effectively bind and stabilize the peptide-receptive MHC molecules prevent dissociation of the MHC complexes. To determine the yield of the exchange reaction, an ELISA was performed based on the detection of the light chain (β2m) of stabilized MHC complexes. The assay was performed as generally described in Rodenko et al. (Rodenko et al., 2006)
96 well MAXISorp plates (NUNC) were coated over night with 2 ug/ml streptavidin in PBS at room temperature, washed 4× and blocked for 1 h at 37° C. in 2% BSA containing blocking buffer. […] Peptide-MHC monomers of the UV-exchange reaction were diluted 100-fold in blocking buffer. Samples were incubated for 1 h at 37° C., washed four times, incubated with 2 ug/ml HRP conjugated anti-β2m for 1 h at 37° C., washed again and detected with TMB solution that is stopped with […]. Absorption was measured at 450 nm.
Turning to MEHSDENIQFW, the peptide exchange yield lay within 20 to 50%. The result for KELSVFKKF reads 50 to 75%.

In turn, SEDPEKYYL displayed a peptide exchange yield of 50 to 75%.

The molecule AEGEPPPAL showed a peptide exchange yield of 50 to 75%. The result for EVEVGDRTDW reads 20 to 50%; that for RENPGMFSW, 50 to 75%; that for VEAATVSKW, 50 to 75%. In the case of MEGAALLKIF, the peptide exchange yield lay in the range of 50 to 75%. SEVEGLAFV gave a peptide exchange yield of 50 to 75%.

Molecule SEAKEIKSQL came in with a peptide exchange yield of 50 to 75%. Turning to REILHAQTL, the peptide exchange yield lay in the range of 50 to 75%. The result for EEHSSKLQTSL reads > 75%; that for TEANVQALF, > 75%; that for SVNPIIYGF, 20 to 50%.

The molecule SEFLLRIF came in with a peptide exchange yield of 20 to 50%. As for EELHAALSEW, the figure is > 75%; as for YERPTLVEL, 50 to 75%; as for AELPENLKALF, 50 to 75%. Turning to TELEVKIRDW, the peptide exchange yield is > 75%.

In the case of SEHSLEGQKF, the peptide exchange yield is 50 to 75%. As for LEGGGRGGEF, the peptide exchange yield was 20 to 50%. As for REMFVFKDQW, the peptide exchange yield is > 75%. Take AGSPVMRKW: the peptide exchange yield is 20 to 50%. In the case of LEIMTNLVTL, the peptide exchange yield was > 75%.

For the molecule KEMQVTISQQL, the peptide exchange yield is > 75%. Consider QEAPRPASSL, for which the peptide exchange yield lay within 50 to 75%.

Take NEAGEVSKHF: the peptide exchange yield was in the range of 50 to 75%. The molecule LEALLSDLF showed a peptide exchange yield of 50 to 75%. REAEEKEAQL displayed a peptide exchange yield of 50 to 75%.

TETDIDREY displayed a peptide exchange yield of 20 to 50%. Turning to SEDTIHTHL, the peptide exchange yield was 50 to 75%. Molecule EEGPSVPKIY displayed a peptide exchange yield of 20 to 50%.

EELALRIGL yielded a peptide exchange yield of 50 to 75%. Turning to TEEITEGVW, the peptide exchange yield is > 75%. Take MEIKGTVTEF: the peptide exchange yield is 50 to 75%. In turn, RELPLVLLA displayed a peptide exchange yield of 20 to 50%. The result for AEGEPPPALAW reads 50 to 75%. As for EEEVFSGMKL, the peptide exchange yield is > 75%. For the molecule HEVAQDDHL, the peptide exchange yield was in the range of 20 to 50%. The molecule WEVEVGDRTDW came in with a peptide exchange yield of 50 to 75%. AEFVPKADLL came in with a peptide exchange yield of 50 to 75%. As for EEHIFSAF, the figure is 20 to 50%; as for GETQQHIQL, 50 to 75%. EEFLRPRSL came in with a peptide exchange yield of 20 to 50%. DENDAGNLITF returned a peptide exchange yield of 50 to 75%. Consider MEILWKTLT, for which the peptide exchange yield was > 75%. Regarding TEQALRLSV, the peptide exchange yield is > 75%. LEMLDAHRL displayed a peptide exchange yield of 50 to 75%. Consider TEGDVLNYIF, for which the peptide exchange yield lay in the range of 50 to 75%. The result for RELRPLFDRQW reads 50 to 75%; that for KEAFGPQAL, > 75%. In turn, AETENRYCV showed a peptide exchange yield of 50 to 75%. The result for SEASVYLFRF reads 50 to 75%. Take ALNGDIYVW: the peptide exchange yield was > 75%. Consider EEIFAHLGL, for which the peptide exchange yield is 50 to 75%. Consider DEDLFHKL, for which the peptide exchange yield was in the range of 20 to 50%. Consider NEILTIHF, for which the peptide exchange yield is 20 to 50%. Take KEHNSSVPWSS: the peptide exchange yield was > 75%.

As for EEQLLQKVM, the peptide exchange yield was > 75%. The result for REEEANVVL reads 50 to 75%. As to AEHDMKSVL, the peptide exchange yield fell in the range of 50 to 75%. On to MEIEGAGNFL, for which the peptide exchange yield is > 75%. The molecule WEVVHTVF gave a peptide exchange yield of 20 to 50%.

In the case of LEEPMPFFY, the peptide exchange yield was in the range of 10 to 20%.

Source of the values: patent US20200087363A1 (IMMATICS BIOTECHNOLOGIES, published 2020).
